{"source": "paper PMC2192062", "biological_target": "H-2Kb, peptide-free ('empty') MHC class I molecule on RMA-S cells (mouse | mouse (endogenous in RMA-S))", "test": "MHC stabilization assay", "data": [{"substance": "SIINFEKL, CTL epitope derived from ovalbumin (peptide)", "values": [{"measurement": "SI (stabilization index)", "result": "450 to 500"}]}]}
